The test concerns the target T1, HLA-B*44:02 (human).
T1 construct: Peptide-receptive MHC monomer made by UV cleavage of a UV-sensitive peptide
The experiment in a line: UV-ligand exchange, anti-b2m ELISA; exchange yield grade (+ >10%, ++ >20%, +++ >50, ++++ >75%). From the text:
Candidate peptides for T cell based therapies according to the present invention were further tested for their MHC binding capacity (affinity). The individual peptide-MHC complexes were produced by UV-ligand exchange, where a UV-sensitive peptide is cleaved upon UV-irradiation, and exchanged with the peptide of interest as analyzed. Only peptide candidates that can effectively bind and stabilize the peptide-receptive MHC molecules prevent dissociation of the MHC complexes. To determine the yield of the exchange reaction, an ELISA was performed based on the detection of the light chain (β2m) of stabilized MHC complexes. The assay was performed as generally described in Rodenko et al. (Rodenko et al., 2006).
96 well MAXISorp plates (NUNC) were coated over night with 2 ug/ml streptavidin in PBS at room temperature, washed 4× and blocked for 1 h at 37° C. in 2% BSA containing blocking buffer. Refolded HLA-A*02:01/MLA-001 monomers served as standards, covering the range of 15-500 ng/ml. Peptide-MHC monomers of the UV-exchange reaction were diluted 100-fold in blocking buffer. Samples were incubated for 1 h at 37° C., washed four times, incubated with 2 ug/ml HRP conjugated anti-β2m for 1 h at 37° C., washed again and detected with TMB solution that is stopped with […]. Absorption was measured at 450 nm. Candidate peptides that show a high exchange yield (preferably higher than 50%, most preferred higher than 75%) are generally preferred for a generation and production of antibodies or fragments thereof, and/or T cell receptors or fragments thereof, as they show sufficient avidity to the MHC molecules and prevent dissociation of the MHC complexes.
In general terms: ELISA stands for enzyme-linked immunosorbent assay.
For the molecule SENPETITY, the peptide exchange yield was 50 to 75%.
The same measure for SEVPVARVW: more than 75%; for TEKEMIQKL: 20 to 50%; for AEQPDGLIL: 20 to 50%.
To KESDGFHRF belongs 50 to 75%.
The same measure for MELLLVNKL: 50 to 75%; for GEELGFASL: 20 to 50%.
YEVDTVLRY displayed a peptide exchange yield of 20 to 50%.
To TEVLDSHIHAY belongs 20 to 50%.
The same measure for AEAVLKTLQEL: 50 to 75%; for KENFAGEATL: 20 to 50%; for AEKQTPDGRKY: 20 to 50%.
The same measure for KEFNLQNMGL: 50 to 75%; for EEESLLTSF: 50 to 75%.
LQEEKVPAIY yielded a peptide exchange yield of 10 to 20%.
QEVLLQTFL: the peptide exchange yield is more than 75%.
For the molecule SEPINIIDAL, the peptide exchange yield was 20 to 50%.
In turn, AENAEYLRV returned a peptide exchange yield of 20 to 50%.
In turn, GEHTSKATL displayed a peptide exchange yield of 20 to 50%.
To SEAFPSRAL belongs 50 to 75%; to AEERAEAKKKF, 20 to 50%.
The same measure for AEETCAPSV: 20 to 50%; for REAEPIPKM: 20 to 50%.
In turn, EEFETLKEF showed a peptide exchange yield of 20 to 50%.
To KESQLPTVM belongs 20 to 50%.
Molecule DEYLIPQQGF yielded a peptide exchange yield of 50 to 75%.
As to TEHTQSQAAW, the peptide exchange yield fell in the range of 50 to 75%.
To AEHDAVRNAL belongs 50 to 75%; to FELPTGAGL, 20 to 50%; to EEAKQVLFL, 20 to 50%.
The molecule AEQTGTWKL gave a peptide exchange yield of 20 to 50%.
For HELENHSMY, the peptide exchange yield fell in the range of 20 to 50%.
As to EEAPLVTKAF, the peptide exchange yield lay within 20 to 50%.
With AEIHTAEI, the peptide exchange yield lay in the range of 20 to 50%.
Turning to SENIVIQVY, the peptide exchange yield is 20 to 50%.
LEMPHYSTF yielded a peptide exchange yield of more than 75%.
Take TTMDQKSLW: the peptide exchange yield was in the range of 10 to 20%.
The same measure for NEINEKIAPSF: 50 to 75%; for IEALLESSL: 20 to 50%; for AENLFRAFL: 50 to 75%.
To GEATLQRIY belongs 10 to 20%.
Consider AEKDGKLTDY, for which the peptide exchange yield is 20 to 50%.
Regarding EEKLIIQDF, the peptide exchange yield lay in the range of 20 to 50%.
The molecule EELLHGQLF showed a peptide exchange yield of 20 to 50%.
The same measure for KEITGFLLI: 50 to 75%.
The same measure for TEATMTFKY: 50 to 75%; for NEISTFHNL: 50 to 75%; for DESEKTTKSF: 20 to 50%.
To SESAVFHGF belongs 50 to 75%.

(Values after US20180291082A1 (IMMATICS BIOTECHNOLOGIES, published 2018).)
